Positions count from the first letter of the chain named. Names and notes keep the numbering of the source.
How the values were obtained:
[1] = biological target: 3β-HSD dehydrogenase type I (HSD3B1) (UniProt P14060); experiment: cross-linking; chemical crosslinking in solution, bands on a gel
[2] = biological target: 3β-HSD dehydrogenase type II (HSD3B2) (UniProt P26439); experiment: as above
[3] = biological target: T1, 3β-hydroxy-Δ^5-C27-steroid oxidoreductase (HSD3B7) (Homo sapiens, UniProt Q9H2F3); experiment: FRET from intrinsic tryptophan fluorescence to NADH, Morrison fit; format: binding
T1 construct: WT, N-terminal 6x histidine tag
T1 sequence (Q9H2F3 1-369): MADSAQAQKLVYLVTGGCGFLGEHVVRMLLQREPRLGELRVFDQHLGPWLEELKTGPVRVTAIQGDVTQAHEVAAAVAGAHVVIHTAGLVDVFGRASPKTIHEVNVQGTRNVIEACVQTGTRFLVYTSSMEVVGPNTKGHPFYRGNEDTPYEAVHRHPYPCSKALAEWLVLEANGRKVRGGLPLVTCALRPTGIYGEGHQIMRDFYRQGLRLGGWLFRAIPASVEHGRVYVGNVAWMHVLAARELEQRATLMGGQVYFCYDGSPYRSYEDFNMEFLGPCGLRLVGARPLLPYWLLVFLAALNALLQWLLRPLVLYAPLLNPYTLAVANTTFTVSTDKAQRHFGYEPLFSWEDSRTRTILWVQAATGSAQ

[4] = substrate: CC(C)CCC[C@@H](C)[C@H]1CC[C@H]2[C@@H]3[C@H](O)C=C4C[C@@H](O)CC[C@]4(C)[C@H]3CC[C@]12C; experiment: steady-state kinetics of purified enzyme (NAD(P)H-Glo), Km; format: biochemical, Homo sapiens; design: kcat / Vmax: unit not given here; conditions: NAD+ predicted oxysterol pocket; F93, F205, I201; near Y-S-N-K tetrad (docking)
[5] = substrate: CC(CCCC(C)C1CCC2C3C(O)C=C4C[C@@H](O)CC[C@]4(C)C3CC[C@]12C)C(=O)O; experiment: as above; format: biochemical, Homo sapiens; design: kcat / Vmax: unit not given here; conditions: NAD+ predicted oxysterol pocket; F93, F205, I201 (docking)
[6] = substrate: C[C@@H](CO)CCC[C@@H](C)[C@H]1CC[C@H]2[C@@H]3[C@H](O)C=C4C[C@@H](O)CC[C@]4(C)[C@H]3CC[C@]12C; experiment: as above; format: biochemical, Homo sapiens; design: kcat / Vmax: unit not given here; conditions: NAD+ predicted oxysterol pocket; F93, F205, I201, Q208 (docking)
[7] = substrate: C[C@H](CCCC(C)(C)O)[C@H]1CC[C@H]2[C@@H]3[C@H](O)C=C4C[C@@H](O)CC[C@]4(C)[C@H]3CC[C@]12C; experiment: as above; format: biochemical, Homo sapiens; design: kcat / Vmax: unit not given here; conditions: NAD+ predicted oxysterol pocket; F93, F205, I201 (docking)
purified protein = substrate: NC(=O)c1ccc[n+]([C@@H]2O[C@H](COP(=O)([O-])OP(=O)(O)OC[C@H]3O[C@@H](n4cnc5c(N)ncnc54)[C@H](O)[C@@H]3O)[C@@H](O)[C@H]2O)c1; experiment: purified protein; format: biochemical, Homo sapiens; conditions: varied: cofactor
[8] = substrate: CC(C)CCC[C@@H](C)[C@H]1CC[C@H]2[C@@H]3[C@H](O)C=C4C[C@@H](O)CC[C@]4(C)[C@H]3CC[C@]12C; experiment: steady-state kinetics of purified mutant, Km; format: biochemical, Homo sapiens; conditions: NAD+ predicted oxysterol binding pocket
[9] = substrate: CC(C)CCC[C@@H](C)[C@H]1CC[C@H]2[C@@H]3[C@H](O)C=C4C[C@@H](O)CC[C@]4(C)[C@H]3CC[C@]12C; experiment: steady-state kinetics of purified mutant, apparent Km; format: biochemical, Homo sapiens; conditions: NAD+ predicted oxysterol binding pocket
[10] = conserved Rossmann fold domain (docking), binds first

Question: “3β-HSD dehydrogenase type I (HSD3B1) (from UniProt P14060 1-373) (enzyme)” was tested. Which stoichiometry N [1] did it give?
Answer: 2

Question: How did the stoichiometry N [2] turn out when “3β-HSD dehydrogenase type II (HSD3B2) (from UniProt P26439 1-372) (enzyme)” was run?
Answer: 2

Question: `NC(=O)C1=CN([C@@H]2O[C@H](COP(=O)(O)OP(=O)(O)OC[C@H]3O[C@@H](n4cnc5c(N)ncnc54)[C@H](O)[C@@H]3O)[C@@H](O)[C@H]2O)C=CC1` [NADH] was tested. Which Kd [3] did it give?
Answer: 780 nM

B1: 3β-hydroxy-Δ^5-C27-steroid oxidoreductase (HSD3B7) (Homo sapiens) (protein)
chain: T1 sequence (Q9H2F3 1-369)
notes: WT, N-terminal 6x histidine tag
Question: With B1 as the molecule, how does the Km [4] read?
Answer: 17.4 µM

Question: And the Vmax [4]?
Answer: 735 (669.5, 812.3)

Question: And the kcat [4]?
Answer: 30.9 (28.1, 34.1)

Question: What about the kcat/Km [4] of the same molecule?
Answer: 30000 ± 10000 M⁻¹ s⁻¹

Question: And the Km [5]?
Answer: 8.6 µM

Question: What about the Vmax [5] of the same molecule?
Answer: 551.8 (513.5, 593.2)

Question: What about the kcat [5] of the same molecule?
Answer: 23.2 (21.6, 24.9)

Question: And the kcat/Km [5]?
Answer: 45000 ± 17000 M⁻¹ s⁻¹

Question: And the Km [6]?
Answer: 3.8 µM

Question: What about the Vmax [6] of the same molecule?
Answer: 532.0 (493.0, 573.4)

Question: What about the kcat [6] of the same molecule?
Answer: 22.4 (20.7, 24.1)

Question: What about the kcat/Km [6] of the same molecule?
Answer: 98000 ± 22000 M⁻¹ s⁻¹

Question: And the Km [7]?
Answer: 18.3 µM

Question: And the Vmax [7]?
Answer: 901.8 (785.3, 1044)

Question: And the kcat [7]?
Answer: 37.9 (33.0, 43.9)

Question: And the kcat/Km [7]?
Answer: 35000 ± 12000 M⁻¹ s⁻¹

Question: What about the Km (purified protein; [10]) of the same molecule?
Answer: 45.8 µM

Question: What about the Vmax (purified protein; [10]) of the same molecule?
Answer: 587.2 (550.0, 628.7)

Question: What about the kcat (purified protein; [10]) of the same molecule?
Answer: 24.7 (23.1, 26.4)

Question: And the kcat/Km (purified protein; [10])?
Answer: 9000 ± 3200 M⁻¹ s⁻¹

B2: 3β-hydroxy-Δ^5-C27-steroid oxidoreductase (HSD3B7) (Homo sapiens; F205A) (protein)
chain: T1 sequence (Q9H2F3 1-369) with F205A
notes: F205A mutant
Question: With B2 as the molecule, how does the Km [8] read?
Answer: 11.2 µM

Question: And the Vmax [8]?
Answer: 76.6 (62.5, 96.0)

Question: What about the kcat [8] of the same molecule?
Answer: 1.5 (1.3, 1.9)

Question: And the kcat/Km [8]?
Answer: 2200 ± 700 M⁻¹ s⁻¹

Question: What about the Km (purified protein) of the same molecule?
Answer: 93.8 µM

Question: And the Vmax (purified protein)?
Answer: 288.2 (255.0, 330.6)

Question: And the kcat (purified protein)?
Answer: 5.8 (5.1, 6.6)

Question: What about the kcat/Km (purified protein) of the same molecule?
Answer: 1000 ± 400 M⁻¹ s⁻¹

B3: 3β-hydroxy-Δ^5-C27-steroid oxidoreductase (HSD3B7) (Homo sapiens; F93A) (protein)
chain: T1 sequence (Q9H2F3 1-369) with F93A
notes: F93A mutant
Question: With B3 as the molecule, how does the Km [9] read?
Answer: 58.2 µM

Question: And the Vmax [9]?
Answer: 286.5 (224.2, 405.0)

Question: And the kcat [9]?
Answer: 14.3 (11.2, 20.3)

Question: And the kcat/Km [9]?
Answer: 4100 ± 2000 M⁻¹ s⁻¹
